{"source": "patent US9505841B2", "about": "“Use of an anti-Ang2 antibody” (Samsung Electronics Co., Ltd., priority 2013, dated 2016)", "type_in_all_cases": "cell-based, human", "key": {"HUVEC monolayer": {"test_system": "HUVEC monolayer", "test": "In vitro vascular permeability assay (FITC-dextran)", "details": "200 ng/ml Ang1 alone or 200 ng/ml Ang2 + 1 ug/ml 10D6", "description": "To see the cell permeability suppression effects of antibody 10D6, in vitro vascular permeability assay kit (Millipore) was employed. HUVEC (ATCC) cells (5×10^4) were added to a collagen-coated transwell and cultured for 2 days to prepare a confluent monolayer. It was treated with 200 ng/ml of Ang2 or 200 ng/ml of Ang1 (R&D systems) alone, or 200 ng/ml of Ang2 and 1 ug/ml of antibody 10D6, pre-incubated for 30 min. and then, treated with 100 ng/ml of LPS (Lipopolysaccharide; Sigma) or 100 ng/ml TNF-a (R&D systems) to induce the permeability of HUVEC monolayer. LPS or TNF-a weakens binding between HUVEC cells to form a gap therebetween, thereby increasing the migration of materials in the HUVEC monolayer. After 6-hour incubation for the LPS treatment group and 22-hour incubation for the TNF-a group, the upper chamber was treated with FITC-dextran (Millipore) and incubated for 18 min. The fluorescence of FITC-dextran migrated to the lower chamber was measured at 485/535 nm (Ex/Em) setting using an Envision 2104 multilabel Reader (Perkinelmer)."}, "E-selectin": {"test_system": "E-selectin", "test": "LPS-induced mRNA expression of E-selectin in HUVEC (qPCR)", "details": "100 ng/ml LPS 5 hours, 0.2 ug/ml Ang1 or 0.1 ug/ml Ang2 + 0.5 ug/ml antibody", "description": "(§1) To see anti-inflammatory effects by antibody 10D6, HUVEC (ATCC) cells (4×10^5) were treated with Ang2 alone or Ang2 together with antibody 10D6, and a group in which Ang1 and Ang2 (R&D systems) and Regeneron Co. antibody (RG antibody) were co-treated was included as a control group. HUVEC cells were treated with 0.2 ug/ml of Ang1, 0.1 ug/ml of Ang2, or 0.1 ug/ml of Ang2 and 0.5 ug/ml of antibody, respectively and after 30-min. pre-incubation, they were treated with 100 ng/ml of LPS (Sigma) to induce inflammatory response and incubated for 5 hours.\n(§2) The degree of the inflammatory response was identified by measuring the mRNA expression degree of an inflammatory adhesion substance (ICAM-1, E-selectin). The cells were washed using PBS, RNA was extracted using RNeasy Mini kit (Qiagen), and among them, 2 ug of RNA was synthesized into cDNA using Transcriptor First Strand cDNA synthesis kit (Roche). qPCR reaction was performed using RT2 SYBR™ Green Mastermix (Qiagen) and LightCycler™ 480 Real-Time PCR System (Roche). As an internal control for calibrating the amount of RNA in a sample, HPRT1 was used, and qPCR complied with the following procedures with regard to all the primers.\n(§3) Step 1: 95° C., 10 min; Step 2 (45 cycles): Step 2-1: 95° C., 15 sec; Step 2-2: 60° C., 1 min; Step 3: 65° C., 15 sec; Step 4: 95° C., continuous (every 20° C.); Step 6: 40° C., 10 sec."}, "[1]": {"test_system": "HL-60 cells adhered to HUVEC cells", "test": "Binding between inflammatory cells HL-60 and HUVEC induced by TNF-a", "details": "1 ng/ml TNF-a; 0.2 ug/ml Ang1 or 0.1 ug/ml Ang2 + 0.5 ug/ml 10D6", "description": "Meanwhile, if the expression of inflammatory adhesion substances (ICAM-1, E-selectin, etc.) of vascular endothelial cells is increased, binding between the inflammatory cells and the vascular endothelial cells are accelerated and inflammatory response is thus induced. To confirm this, an experiment for measuring binding between inflammatory cells HL-60 (ATCC) and HUVEC was conducted.\nHUVEC cells (4×10^5) were cultured in a 24-mutiwell plate and treated with 0.1 ug/ml of Ang2 alone or 0.1 ug/ml of Ang2 together with 0.5 ug/ml of antibody 10D6, and a group in which 0.2 ug/ml of Ang1, and 0.1 ug/ml of Ang2 (R&D systems) and 0.5 ug/ml of Regeneron Co. antibody (RG antibody) were co-treated was included as a control group. As above, the HUVEC cells were treated with Angiopoietin and antibody and after 30-min. pre-incubation, they were treated with 1 ng/ml of TNF-a (eBioscience) to induce inflammatory response and incubated for 2 hours and 30 min.\nAfter the HUVEC cells were washed with complete media (Lonza), HL-60 cells dyed with Calcein-AM (BD bioscience) solution were added at the amount of 2.5×10^5 cells to each well and incubated for 1 hour. […] The obtained lysate was transported to a 96-well plate, and fluorescence strengths derived from the HL-60 cells were measured at 485/535 nm (Ex/Em) setting using an Envision 2104 multilabel Reader (Perkin Elmer)."}, "Akt, eNOS and 42/44": {"test_system": "Akt, eNOS and 42/44", "test": "Phosphorylation of Tie2 downstream signaling proteins in HUVEC (immunoblot)", "details": "60 nM 10D6 + 40 nM Ang2, or Ang1 4 nM alone, 30 min", "description": "To see whether antibody 10D6 induces the activation of the downstream signaling of a Tie2 receptor as well as the activation of the Tie2 receptor itself, the phosphorylation degrees of proteins participating in the downstream signaling when Ang2 alone or Ang2 and antibody 10D6 was treated were tested using immune blotting.\nSpecifically, HUVEC (ATCC) cells (1×10^6) were cultured in a 6-well culture dish using EGM-2 (Lonza) media at 37° C. and when they reached 80˜90% confluency, the media were replaced with serum-free media (Lonza) and cultured at 37° C. for 6 to 16 hours. The dish was washed once with PBS, and the cultured cells were treated with a mixture prepared by mixing 60 nM of the Ang2 antibody (10D6) with 40 nM of Ang2 protein (R&D systems) and letting them stand for 20 min. and further cultured for 30 min. For comparison, groups in which Ang1 (R&D systems) 4 nM, Ang2 (R&D systems) 40 nM, and Ang2 (R&D systems) 40 nM+anti-Ang2 antibody (Regeneron) 60 nM were treated respectively were prepared.\nThe cells were washed using PBS, treated with a lysis buffer (Roche), collected to a tube to be dissolved at 4° C. for 30 min. and then, centrifuged at 13,000 rpm for 15 min. to measure a supernatant. A sample buffer (Invitrogen) mixed with a reducing agent was added to 25 ug of a cell lysate, which was boiled at 95° C. for 5 min., and then, applied to NuPAGE Novex 4-12% Bis-Tris gel (Invitrogen) and transferred onto Nitrocellulose membrane (Invitrogen).\nTo see the presence of the phosphorylation of Akt, eNOS and 42/44 involved in the downstream signaling, the blots were blocked with PBST mixed with 3% (v/v) skim milk (Sigma) for 30 min. and then treated with an anti pAkt antibody, anti p-eNOS antibody, and anti p-42/44 antibody (all of them; cell signaling). The blots were reacted in a stripping buffer (Thermo) for 15 min. and then blocked again to identify Akt, eNOS, and 42/44 using an anti Akt antibody, anti eNOS antibody, and anti 42/44 antibody (all of them; cell signaling)."}, "ICAM-1": {"test_system": "ICAM-1", "test": "LPS-induced mRNA expression of ICAM-1 in HUVEC (qPCR)", "details": "100 ng/ml LPS 5 hours, 0.2 ug/ml Ang1 or 0.1 ug/ml Ang2 + 0.5 ug/ml antibody", "description": "as §1, §2, §3"}}, "data": [{"molecule": "Ang1: Angiopoietin-1 protein (R&D systems), ligand which activates the Tie2 receptor (protein, UniProt Q15389 16-498, looked up) Angiopoietin-1: HIGCSNQRRSPENSGRRYNRIQHGQCAYTFILPEHDGNCRESTTDQYNTNALQRDAPHVEPDFSSQKLQHLEHVMENYTQWLQKLENYIVENMKSEMAQIQQNAVQNHTATMLEIGTSLLSQTAEQTRKLTDVETQVLNQTSRLEIQLLENSLSTYKLEKQLLQQTNEILKIHEKNSLLEHKILEMEGKHKEELDTLKEEKENLQGLVTRQTYIIQELEKQLNRATTNNSVLQKQQLELMDTVHNLVNLCTKEGVLLKGGKREEEKPFRDCADVYQAGFNKSGIYTIYINNMPEPKKVFCNMDVNGGGWTVIQHREDGSLDFQRGWKEYKMGFGNPSGEYWLGNEFIFAITSQRQYMLRIELMDWEGNRAYSQYDRFHIGNEKQNYRLYLKGHTGTAGKQSSLILHGADFSTKDADNDNCMCKCALMLTGGWWFDACGPSNLNGMFYTAGQNHGKLNGIKWHYFKGPSYSLRSTTMMIRPLDF", "values": [{"measurement": "vascular permeability increased by LPS", "setting": "HUVEC monolayer; 100 ng/ml LPS, 6 hour", "result": "decreased to the control level"}, {"measurement": "vascular permeability increased by TNF-a", "setting": "HUVEC monolayer; 100 ng/ml TNF-a, 22 hour", "result": "decreased to the control level"}, {"measurement": "expression of E-selectin induced by LPS", "setting": "E-selectin", "result": "remarkably suppressed"}, {"measurement": "binding between HUVEC cells and HL-60 cells induced by TNF-a", "setting": "[1]", "result": "remarkably suppressed"}, {"measurement": "downstream signaling (phosphorylation of Akt, eNOS, 42/44) compared to Ang2 sole-treatment and Ang2 + RG antibody", "setting": "Akt, eNOS and 42/44", "result": "strongly induced"}, {"measurement": "expression of ICAM-1 induced by LPS", "setting": "ICAM-1", "result": "remarkably suppressed"}]}]}
